Assay results reported in patent publication US20040146507A1 (Genentech, published 2004).
“And” between values parts separate entries of the source, which are not always exact repeats. Identical values can stand only once.

T1: rhesus CD11a (rhesus, UniProt H9Z8N3 26-1169)
T1 construct: whole, on cells; On rhesus peripheral blood lymphocytes or leukocytes; also called rhCD11a
T1 sequence: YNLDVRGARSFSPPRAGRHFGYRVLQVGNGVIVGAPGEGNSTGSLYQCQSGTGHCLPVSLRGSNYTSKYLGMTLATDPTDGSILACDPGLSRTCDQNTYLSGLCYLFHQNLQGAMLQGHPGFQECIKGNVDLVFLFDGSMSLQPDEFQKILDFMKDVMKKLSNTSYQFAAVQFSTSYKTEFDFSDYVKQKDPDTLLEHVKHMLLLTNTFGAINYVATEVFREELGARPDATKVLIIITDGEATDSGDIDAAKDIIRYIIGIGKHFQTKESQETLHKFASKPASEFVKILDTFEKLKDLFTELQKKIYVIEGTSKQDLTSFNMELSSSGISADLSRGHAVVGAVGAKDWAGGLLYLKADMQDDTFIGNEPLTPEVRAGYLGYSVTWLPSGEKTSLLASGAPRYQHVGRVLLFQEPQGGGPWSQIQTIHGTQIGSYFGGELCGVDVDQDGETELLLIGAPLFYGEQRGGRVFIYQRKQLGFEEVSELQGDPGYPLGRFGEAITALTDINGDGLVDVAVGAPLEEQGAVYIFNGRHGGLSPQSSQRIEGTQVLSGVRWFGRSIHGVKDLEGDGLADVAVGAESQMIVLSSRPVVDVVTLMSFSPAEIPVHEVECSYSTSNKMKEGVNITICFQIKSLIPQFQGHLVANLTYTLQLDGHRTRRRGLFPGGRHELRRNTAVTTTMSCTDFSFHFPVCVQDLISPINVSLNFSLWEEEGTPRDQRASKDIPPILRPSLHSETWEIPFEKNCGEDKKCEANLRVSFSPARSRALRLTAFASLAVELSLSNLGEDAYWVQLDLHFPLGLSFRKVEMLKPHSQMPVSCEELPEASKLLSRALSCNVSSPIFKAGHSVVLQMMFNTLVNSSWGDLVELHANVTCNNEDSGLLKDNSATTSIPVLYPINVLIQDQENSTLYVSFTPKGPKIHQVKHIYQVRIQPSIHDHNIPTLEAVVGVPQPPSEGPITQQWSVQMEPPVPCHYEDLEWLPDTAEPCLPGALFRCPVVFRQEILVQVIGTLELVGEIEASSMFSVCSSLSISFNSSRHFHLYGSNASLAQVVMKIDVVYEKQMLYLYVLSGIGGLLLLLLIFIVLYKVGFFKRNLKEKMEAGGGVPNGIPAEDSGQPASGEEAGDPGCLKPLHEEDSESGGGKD

T2: rhesus-human chimeric CD11a (human (I-domain mutated to rhesus), UniProt P20701 26-1170)
T2 sequence (looked up): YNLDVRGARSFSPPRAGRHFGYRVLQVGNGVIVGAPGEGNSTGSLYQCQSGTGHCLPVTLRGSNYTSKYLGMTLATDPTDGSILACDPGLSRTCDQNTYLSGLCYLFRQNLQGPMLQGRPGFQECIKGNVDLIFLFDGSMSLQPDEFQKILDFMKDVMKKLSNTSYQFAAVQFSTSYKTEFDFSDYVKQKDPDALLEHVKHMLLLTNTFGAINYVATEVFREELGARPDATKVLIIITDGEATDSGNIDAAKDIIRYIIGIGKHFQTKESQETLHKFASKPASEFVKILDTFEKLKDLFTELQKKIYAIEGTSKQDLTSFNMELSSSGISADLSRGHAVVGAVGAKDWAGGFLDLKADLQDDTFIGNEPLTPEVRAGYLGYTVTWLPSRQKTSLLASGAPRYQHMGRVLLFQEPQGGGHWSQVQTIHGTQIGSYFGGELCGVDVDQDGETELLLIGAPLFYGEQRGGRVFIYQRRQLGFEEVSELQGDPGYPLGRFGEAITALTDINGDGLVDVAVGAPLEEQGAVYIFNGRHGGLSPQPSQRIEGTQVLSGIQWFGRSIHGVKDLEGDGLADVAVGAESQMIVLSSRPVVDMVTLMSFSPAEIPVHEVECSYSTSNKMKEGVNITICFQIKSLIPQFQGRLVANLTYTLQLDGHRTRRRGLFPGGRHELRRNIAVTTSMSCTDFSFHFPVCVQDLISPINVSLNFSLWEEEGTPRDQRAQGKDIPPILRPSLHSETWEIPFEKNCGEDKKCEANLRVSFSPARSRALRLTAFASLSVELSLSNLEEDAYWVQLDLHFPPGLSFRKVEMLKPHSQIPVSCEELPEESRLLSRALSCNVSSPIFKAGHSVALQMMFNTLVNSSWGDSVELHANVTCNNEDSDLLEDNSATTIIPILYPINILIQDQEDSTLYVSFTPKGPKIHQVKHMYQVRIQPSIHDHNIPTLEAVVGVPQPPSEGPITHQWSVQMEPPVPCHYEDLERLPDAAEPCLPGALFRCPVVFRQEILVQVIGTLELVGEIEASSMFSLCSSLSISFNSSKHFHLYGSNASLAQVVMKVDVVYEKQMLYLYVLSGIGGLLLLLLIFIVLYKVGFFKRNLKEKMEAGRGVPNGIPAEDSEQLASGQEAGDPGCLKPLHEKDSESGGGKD


How the values were obtained:
rhesus CD11a [1] = target: T1, rhesus CD11a; assay: rhesus PBL binding
rhesus CD11a [2] = target: T1, rhesus CD11a; assay: saturation binding
Procedure: (§1) Antibody affinities were determined by saturation binding using either peripheral blood mononuclear cells (murine MHM24 and HuIgG1) or rhesus leukocytes (MHM23, RhIgG1). In each assay, a radiolabeled antibody was serially diluted in HBSS-0.2% gelatin in quadruplicate. Nonspecific binding was determined by the addition of 500 nM final concentration of homologous unlabeled antibody in duplicate through the serial dilution. Human lymphocytes or rhesus leukocytes were added to the plates in a volume of 170 μl per well. Plates were incubated for 2 hr at room temperature on an orbital plate shaker. After incubation, cells were harvested using a SKATRON™ cell harvester (Lier, Norway) and washed 10 times with PBS containing 0.25% gelatin and 0.1% sodium azide. Samples were then counted for 1 min in an LBK Wallac GammaMaster gamma counter (Gaithersburg, Md.). Data was transformed from counts per minute to nanomolarity and four-parameter curve-fitting of saturation plots (bound versus total) was then performed to determine Kd (app) values.

rhesus CD11a [3] = target: T1, rhesus CD11a; assay: cell-based or functional assay
[4] = target: T2, rhesus-human chimeric CD11a; assay: cell-based or functional assay
rhesus CD11a [5] = target: T1, rhesus CD11a; assay: rhesus PBL binding; remark: listed apart in the source
rhesus CD11a [6] = target: T1, rhesus CD11a; assay: cell-based or functional assay; remark: listed apart in the source
[7] = target: T2, rhesus-human chimeric CD11a; assay: cell-based or functional assay; remark: listed apart in the source
rhesus CD11a [8] = target: T1, rhesus CD11a; assay: cell-based or functional assay; remark: listed apart in the source
rhesus CD11a [9] = target: T1, rhesus CD11a; assay: saturation binding, rhesus leukocytes, donor 1; Kd(app)
Procedure: (§2) Radiolabeled antibodies were prepared using Iodo-Gen (Pierce, Rockford, Ill.) according to the manufacturer's instructions. 50 μg of antibody and 1 mCi¹²⁵I (DuPont, Wilmington, Del.) were added to each tube and incubated for 15 min at 25° C. Radiolabeled proteins were purified from the remaining free ¹²⁵I using PD-10 columns (Pharmacia, Uppsala, Sweden) equilibrated in Hank's Balanced Salt Solution (HBSS, Life Technologies, Grand Island, N.Y.) containing 0.2% gelatin.
Leukocytes were purified from heparinized rhesus monkey peripheral blood collected from two individuals by Dextran sedimentation. Blood was diluted with an equal volume of 3% Dextran T500 (Pharmacia) in PBS and was allowed to sediment undisturbed at 25° C. for 30 min. After sedimentation, cells remaining in suspension were harvested and pelleted by centrifugation at 400×g for 5 min. Residual erythrocytes were removed by two cycles of hypotonic lysis using distilled water and 2×HBSS. […]
Antibody affinities were determined by saturation binding using either peripheral blood mononuclear cells (murine MHM24 and HuIgG1) or rhesus leukocytes (MHM23, RhIgG1). […] Nonspecific binding was determined by the addition of 500 nM final concentration of homologous unlabeled antibody in duplicate through the serial dilution. […] Samples were then counted for 1 min in an LBK Wallac GammaMaster gamma counter (Gaithersburg, Md.). […]

rhesus CD11a [10] = target: T1, rhesus CD11a; assay: rhesus PBL binding; end of range assigned by the printed EC50s
rhesus CD11a [11] = target: T1, rhesus CD11a; assay: saturation binding, rhesus leukocytes, donor 3, with 1 mg/ml human IgG1; Kd(app)
Procedure: Leukocytes were purified from heparinized rhesus monkey peripheral blood collected from two individuals by Dextran sedimentation. Blood was diluted with an equal volume of 3% Dextran T500 (Pharmacia) in PBS and was allowed to sediment undisturbed at 25° C. for 30 min. After sedimentation, cells remaining in suspension were harvested and pelleted by centrifugation at 400×g for 5 min. Residual erythrocytes were removed by two cycles of hypotonic lysis using distilled water and 2×HBSS. After erythrocyte lysis, cells were washed in PBS and then resuspended in HBSS-0.2% gelatin.
as §1, with “After incubation, cells were harvested using a SKATRON™ cell harvester (Lier, Norway) and washed 10 times with PBS containing 0.25% gelatin and 0.1% sodium azide.” left out, “Data was transformed from counts per minute to nanomolarity and four-parameter curve-fitting of saturation plots (bound versus total) was then performed to determine Kd (app) values.” left out

human CD11a [12] = target: T3, human CD11a (human, UniProt P20701 26-1170); assay: cell-based or functional assay
rhesus CD11a [13] = target: T1, rhesus CD11a; assay: binding to rhesus CD11a compared with human CD11a
human CD11a [14] = target: T3, human CD11a; assay: saturation binding, human lymphocytes, donor 1; Kd(app)
Procedure: as §2
as §1, with “Data was transformed from counts per minute to nanomolarity and four-parameter curve-fitting of saturation plots (bound versus total) was then performed to determine Kd (app) values.” left out

human CD11a [15] = target: T3, human CD11a; assay: saturation binding, human lymphocytes, donor 2; Kd(app)
Procedure: as §2
as §1, with “Data was transformed from counts per minute to nanomolarity and four-parameter curve-fitting of saturation plots (bound versus total) was then performed to determine Kd (app) values.” left out

human CD11a [16] = target: T3, human CD11a; assay: saturation binding, 125I-antibody, human lymphocytes; Kd(app)
Procedure: as §2
as §1, with “Data was transformed from counts per minute to nanomolarity and four-parameter curve-fitting of saturation plots (bound versus total) was then performed to determine Kd (app) values.” left out

EC50 (rhesus CD11a [1]) [nM]	fold Kd against Kd of HuIgG1 for human CD11a (rhesus CD11a [2]) [fold]	fold less efficacious than MHM23, RhLy: HuICAM adhesion (rhesus CD11a [3]) [fold]	fold less efficacious than MHM23, RhLy: HuK adhesion (rhesus CD11a [3]) [fold]	fold down from MHM23, Rh/HuCD11a-293: HuK adhesion [4] [fold]	Var.EC50/HuIgG1 EC50 (rhesus CD11a [5]) [ratio]	IC50, blocking of cell adhesion, RhLy: HuICAM (rhesus CD11a [6]) [nM]	IC50, blocking of cell adhesion, RhLy: HuK (rhesus CD11a [6]) [nM]	IC50, blocking of cell adhesion, Rh/HuCD11a: HuK [7] [nM]	IC50, rhesus mixed lymphocyte response (rhesus CD11a [8]) [nM]	Kd (rhesus CD11a [9]) [nM]	fold improvement over EC50 of HuIgG1 for rhesus CD11a (rhesus CD11a [10]) [fold]	fold weaker than EC50 of HuIgG1 for human CD11a (rhesus CD11a [10]) [fold]	Kd (rhesus CD11a [11])	IC50, blocking of cell adhesion, Jurkat: HuK (human CD11a [12]) [nM]	fold reduction in binding against human CD11a (rhesus CD11a [13]) [fold]	Kd (human CD11a [14]) [nM]	Kd (human CD11a [15]) [nM]	Kd (human CD11a [16]) [nM]	Binder
0.19	~26	4	74	4	0.004	5.3	119	4.9	23.4	3.9	240 to 415	3 to 5	2.8 nM and 2.7 nM	–	–	–	–	–	rhesus-binding MHM24 IgG1 (antibody, V domains shown, HuIgG1 mutant (H52 Ala, H53 Ala, H54 Ser, H56 Ser); human IgG1; also called RhIgG1; H2C12) VH: EVQLVESGGGLVQPGGSLRLSCAASGYSFTGHWMNWVRQAPGKGLEWVGMIAPASSSTRYNQKFKDRFTISVDKSKNTLYLQMNSLRAEDTAVYYCARGIYFYGTTYFDYWGQGTLVTVSS VL: DIQMTQSPSSLSASVGDRVTITCRASKTISKYLAWYQQKPGKAPKLLIYSGSTLQSGVPSRFSGSGSGTDFTLTISSLQPEDFATYYCQQHNEYPLTFGQGTKVEIKR
–	–	–	–	–	–	–	–	–	–	–	–	–	–	0.09	~1000	0.16	0.13	0.15	murine MHM24 (antibody, V domains shown, Murine anti-human CD11a monoclonal antibody; also called muMHM24; murMHM24) VH: EVQLQQPGAELMRPGASVKLSCKASGYSFTGHWMNWVRQRPGQGLEWIGMIHPSDSETRLNQKFKDKATLTVDKSSSSAYMQLSSPTSEDSAVYYCARGIYFYGTTYFDYWGQGTTLTVSS VL: DVQITQSPSYLAASPGETISINCRASKTISKYLAWYQEKPGKTNKLLIYSGSTLQSGIPSRFSGSGSGTDFTLTISSLEPEDFAMYYCQQHNEYPLTFGTGTKLELKR
